Tested on: Escherichia coli TOP10
Test: shrunken log2 fold change of peptide-encoding DNA abundance (4.5 h post-induction vs induction); higher = less antimicrobial activity (less host growth inhibition)
Conditions: time post-induction: 4.5 h; library: site-saturation at positions 5, 18, 19, 20
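Further: peptides expressed intracellularly from a pBAD plasmid library in pooled LB shake-flask culture, induced with 0.3% L-arabinose, DNA abundance read by NGS, three biological replicates, DESeq2 with apeglm shrinkage.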

| Sequence | shrunken log2 fold change |
| --- | --- |
| RRIRMRPPRLPRPRPRPCTMPRP | -0.218 |
| RRIRARPPRLPRPRPRPQSHPRP | -0.162 |
| RRIRDRPPRLPRPRPRPGWWPRP | 0.227 |
| RRIRARPPRLPRPRPRPGLKPRP | 0.469 |
| RRIRNRPPRLPRPRPRPSRDPRP | -0.129 |
| RRIRVRPPRLPRPRPRPYEEPRP | -0.128 |
| RRIRKRPPRLPRPRPRPWHDPRP | -0.406 |
| RRIRGRPPRLPRPRPRPCLHPRP | 0.331 |
| RRIRYRPPRLPRPRPRPGGIPRP | -0.0836 |
| RRIRMRPPRLPRPRPRPHDEPRP | -0.0018 |
| RRIRRRPPRLPRPRPRPDHRPRP | -0.00663 |
| RRIRSRPPRLPRPRPRPFVNPRP | -0.99 |
| RRIRDRPPRLPRPRPRPLVFPRP | -0.0186 |
| RRIRDRPPRLPRPRPRPATGPRP | 0.312 |
| RRIRSRPPRLPRPRPRPRMSPRP | 0.0167 |
| RRIRQRPPRLPRPRPRPPKYPRP | -0.313 |
| RRIRARPPRLPRPRPRPEVNPRP | 0.291 |
| RRIRPRPPRLPRPRPRPYEPPRP | -0.317 |
| RRIRPRPPRLPRPRPRPTCLPRP | -0.105 |
| RRIRIRPPRLPRPRPRPREHPRP | -0.393 |
| RRIRQRPPRLPRPRPRPQSLPRP | -0.0818 |
| RRIRPRPPRLPRPRPRPNTVPRP | -0.411 |
| RRIRMRPPRLPRPRPRPREQPRP | 0.0355 |
| RRIRPRPPRLPRPRPRPMFAPRP | -0.0605 |
| RRIRVRPPRLPRPRPRPGQLPRP | 0.208 |

| Sequence | shrunken log2 fold change |
| --- | --- |
| RRIRFRPPRLPRPRPRPRDHPRP | 0.015 |
| RRIRLRPPRLPRPRPRPADIPRP | -0.00142 |
| RRIRMRPPRLPRPRPRPYQVPRP | -0.393 |
| RRIRMRPPRLPRPRPRPCRRPRP | 0.0172 |
| RRIRDRPPRLPRPRPRPRCVPRP | 0.117 |
| RRIRMRPPRLPRPRPRPVKKPRP | 0.0481 |
| RRIRCRPPRLPRPRPRPVDHPRP | -0.148 |
| RRIRPRPPRLPRPRPRPPILPRP | -0.000706 |
| RRIRKRPPRLPRPRPRPNRIPRP | 0.0866 |
| RRIRPRPPRLPRPRPRPAEYPRP | -0.565 |
| RRIRQRPPRLPRPRPRPTPFPRP | 0.296 |
| RRIRFRPPRLPRPRPRPQEPPRP | 0.436 |
| RRIRWRPPRLPRPRPRPMYVPRP | -0.0461 |
| RRIRWRPPRLPRPRPRPHGKPRP | 0.00196 |
| RRIRMRPPRLPRPRPRPDQKPRP | -0.0396 |
| RRIRCRPPRLPRPRPRPKVGPRP | -0.0582 |
| RRIRWRPPRLPRPRPRPMIPPRP | 0.0901 |
| RRIRTRPPRLPRPRPRPCFEPRP | -0.0858 |
| RRIRYRPPRLPRPRPRPVFDPRP | -1.18 |
| RRIRFRPPRLPRPRPRPGWLPRP | 0.129 |
| RRIRSRPPRLPRPRPRPKIQPRP | -0.311 |
| RRIRPRPPRLPRPRPRPLNGPRP | -0.0765 |
| RRIRWRPPRLPRPRPRPEHDPRP | -0.0282 |
| RRIRKRPPRLPRPRPRPSYIPRP | -0.136 |
| RRIRERPPRLPRPRPRPENLPRP | -0.226 |

| Sequence | shrunken log2 fold change |
| --- | --- |
| RRIRTRPPRLPRPRPRPFDCPRP | -0.748 |
| RRIRSRPPRLPRPRPRPHMGPRP | -0.0366 |
| RRIRYRPPRLPRPRPRPVPEPRP | -0.294 |
| RRIRMRPPRLPRPRPRPSLDPRP | 0.663 |
| RRIRRRPPRLPRPRPRPQEYPRP | -0.0725 |
| RRIRGRPPRLPRPRPRPARTPRP | 0.545 |
| RRIRVRPPRLPRPRPRPHAFPRP | 0.0978 |
| RRIRKRPPRLPRPRPRPEDWPRP | 2.01 |
| RRIRGRPPRLPRPRPRPWCMPRP | 0.13 |
| RRIRWRPPRLPRPRPRPDHWPRP | 0.109 |
| RRIRHRPPRLPRPRPRPTHFPRP | 0.176 |
| RRIRCRPPRLPRPRPRPYNFPRP | -0.497 |
| RRIRQRPPRLPRPRPRPANVPRP | -0.105 |
| RRIRYRPPRLPRPRPRPHPDPRP | -0.299 |
| RRIRDRPPRLPRPRPRPQRHPRP | 0.0682 |
| RRIRYRPPRLPRPRPRPSQTPRP | -0.0989 |
| RRIRLRPPRLPRPRPRPVPEPRP | 0.161 |
| RRIRQRPPRLPRPRPRPWVWPRP | 0.0723 |
| RRIRTRPPRLPRPRPRPCRVPRP | -0.346 |
| RRIRPRPPRLPRPRPRPRDNPRP | -0.104 |
| RRIRLRPPRLPRPRPRPALTPRP | 0.129 |
| RRIRWRPPRLPRPRPRPLVFPRP | 0.0454 |
| RRIRERPPRLPRPRPRPKWAPRP | 0.0574 |
| RRIRNRPPRLPRPRPRPGSPPRP | -0.11 |
| RRIRIRPPRLPRPRPRPMWAPRP | -0.0316 |

| Sequence | shrunken log2 fold change |
| --- | --- |
| RRIRPRPPRLPRPRPRPAWMPRP | 0.372 |
| RRIRNRPPRLPRPRPRPAISPRP | -0.128 |
| RRIRFRPPRLPRPRPRPNDVPRP | 0.0386 |
| RRIRVRPPRLPRPRPRPQEYPRP | 0.0203 |
| RRIRWRPPRLPRPRPRPMNCPRP | 0.0143 |
| RRIRMRPPRLPRPRPRPYVVPRP | 0.00957 |
| RRIRQRPPRLPRPRPRPNTMPRP | 0.12 |
| RRIRLRPPRLPRPRPRPYFCPRP | -0.34 |
| RRIRGRPPRLPRPRPRPFYSPRP | -0.00304 |
| RRIRFRPPRLPRPRPRPLDWPRP | -0.119 |
| RRIRIRPPRLPRPRPRPWVIPRP | -0.0141 |
| RRIRFRPPRLPRPRPRPWVIPRP | -0.412 |
| RRIRSRPPRLPRPRPRPTSGPRP | 0.194 |
| RRIRRRPPRLPRPRPRPAYKPRP | 0.0139 |
| RRIRIRPPRLPRPRPRPSRCPRP | -0.174 |
| RRIRERPPRLPRPRPRPETNPRP | -0.000368 |
| RRIRERPPRLPRPRPRPTWMPRP | 0.0534 |
| RRIRGRPPRLPRPRPRPYDFPRP | -0.0968 |
| RRIRGRPPRLPRPRPRPYAQPRP | 0.104 |
| RRIRNRPPRLPRPRPRPQPLPRP | -0.102 |
| RRIRLRPPRLPRPRPRPDCTPRP | 0.0972 |
| RRIRNRPPRLPRPRPRPYYKPRP | -1.46 |
| RRIRRRPPRLPRPRPRPSIIPRP | -0.332 |
| RRIRQRPPRLPRPRPRPFTSPRP | -0.00281 |
| RRIRGRPPRLPRPRPRPTVEPRP | 1.27 |

| Sequence | shrunken log2 fold change |
| --- | --- |
| RRIRPRPPRLPRPRPRPMQDPRP | 0.0218 |
| RRIRLRPPRLPRPRPRPEFHPRP | -0.113 |
| RRIRPRPPRLPRPRPRPGIFPRP | 0.0736 |
| RRIRRRPPRLPRPRPRPYQWPRP | -0.244 |
| RRIRPRPPRLPRPRPRPRMLPRP | 0.00647 |
| RRIRDRPPRLPRPRPRPTHIPRP | -0.656 |
| RRIRSRPPRLPRPRPRPKRHPRP | 0.169 |
| RRIRFRPPRLPRPRPRPGQRPRP | 0.686 |
| RRIRGRPPRLPRPRPRPINAPRP | 0.288 |
| RRIRMRPPRLPRPRPRPTGKPRP | 0.562 |
| RRIRFRPPRLPRPRPRPQRIPRP | -0.695 |
| RRIRVRPPRLPRPRPRPQLGPRP | -0.0234 |
| RRIRRRPPRLPRPRPRPDDEPRP | 0.0458 |
| RRIRHRPPRLPRPRPRPGHLPRP | -0.0129 |
| RRIRERPPRLPRPRPRPDIVPRP | -0.158 |
| RRIRQRPPRLPRPRPRPDRDPRP | -0.242 |
| RRIRKRPPRLPRPRPRPNQGPRP | 0.079 |
| RRIRARPPRLPRPRPRPETVPRP | 0.312 |
| RRIRYRPPRLPRPRPRPLIFPRP | -1.08 |
| RRIRTRPPRLPRPRPRPCIEPRP | -0.183 |
| RRIRVRPPRLPRPRPRPACIPRP | -0.0537 |
| RRIRFRPPRLPRPRPRPHQWPRP | -0.0612 |
| RRIRFRPPRLPRPRPRPEIAPRP | -0.0213 |
| RRIRDRPPRLPRPRPRPADHPRP | -0.0509 |
| RRIRWRPPRLPRPRPRPISRPRP | -0.116 |

Reference: the supplement of paper PMC9112550, “Optimization of the antimicrobial peptide Bac7 by deep mutational scanning” (BMC Biology, 2022)
